Changes are numbered by the printed parent chain. In names and notes the source's numbering stands. Like-named read-outs stand apart in the source and are kept apart here. One block for each binder: values may come before it.
Experiments:
[1] = target: T1, human LAG3 (form used in Octet, Biacore and HDX-MS not given) (human, UniProt P18627 23-450, limits assumed); assay: BLI (Octet), 1:1 fit
T1 sequence (looked up): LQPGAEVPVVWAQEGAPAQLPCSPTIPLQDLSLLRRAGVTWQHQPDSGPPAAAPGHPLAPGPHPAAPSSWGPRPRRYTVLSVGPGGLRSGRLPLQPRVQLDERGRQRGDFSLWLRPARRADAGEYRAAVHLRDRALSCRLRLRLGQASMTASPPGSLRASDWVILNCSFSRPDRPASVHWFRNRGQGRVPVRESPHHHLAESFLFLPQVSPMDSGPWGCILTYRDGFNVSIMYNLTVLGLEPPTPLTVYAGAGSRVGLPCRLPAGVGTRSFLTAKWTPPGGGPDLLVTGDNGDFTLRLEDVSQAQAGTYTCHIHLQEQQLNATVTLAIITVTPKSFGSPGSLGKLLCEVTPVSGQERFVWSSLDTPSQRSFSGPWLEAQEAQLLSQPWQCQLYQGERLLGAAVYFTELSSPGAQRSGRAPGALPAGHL
Method: (§1) The association and dissociation curves were fit with 1:1 binding model, and the Ka/Kd/KD values for each antibody were calculated.
as §1

[2] = target: T2, mFc tagged human LAG3 ECD recombinant protein (human, UniProt P18627 23-450); assay: competitive FACS: mFc tagged human LAG3 ECD binding to MHC II on Raji cells
T2 construct: extracellular domain; purchased from Biointron; not shown: mouse IgG Fc (mFc) tag
T2 sequence (looked up): T1 sequence (looked up)
Method: (§2) Activity of the purified chimeric antibodies to block LAG3 and MHC II interaction was determined by competitive FACS assay. […] After washing, dye labeled anti-mouse Fc 2nd antibody (Sigma) was added and incubated at 37° C. for 1 hour. Fluorescence intensity was detected.

[3] = target: T2, mFc tagged human LAG3 ECD recombinant …; assay: as above; remark: listed apart in the source
Method: as §2

[4] = target: T2, mFc tagged human LAG3 ECD recombinant …; assay: competitive FACS: mFc-LAG3 ECD binding to Raji cells (MHC II)
Method: as §2

[5] = target: T3, hFc tagged human LAG3 ECD recombinant protein (human, UniProt P18627 23-450); assay: competitive ELISA format II: biotin hFc-LAG3 ECD binding to coated His-FGL1
T3 construct: range 23-450; also called biotin labelled hFc tagged human LAG3 ECD; not shown: human IgG Fc tag
T3 sequence (looked up): T1 sequence (looked up)
Method: (§3) After washing, HRP labeled anti-His 2nd antibody (Sigma) was added and incubated at 37° C. for 1 hour. Then, 100 μl/well of TMB solution (Biotechnology) was added. After incubation for 15 minutes at room temperature, the reaction was stopped by the addition of 50 μl of 1N HCl. OD 450 nm was read. […] After washing, HRP labeled anti-SA 2nd antibody (Sigma) was added and incubated at 37° C. for 1 hour. Then, 100 μl/well of TMB solution (Biotechnology) was added. After incubation for 15 minutes at room temperature, the reaction was stopped by the addition of 50 μl of 1N HCl. OD 450 nm was read. […] The competition assay of format III is a competitive FACS assay. […] After washing, dye labeled anti-His 2nd antibody (Sigma) was added and incubated at 37° C. for 1 hour. Fluorescence intensity was detected.

[6] = target: T1, human LAG3 (form used in Octet, Biacore …); assay: SPR (Biacore), 1:1 fit
Method: as §1

[7] = target: T1, human LAG3 (form used in Octet, Biacore …); assay: BLI (Octet)
[8] = target: T4, human LAG3, full length, stably expressed on cells (human, UniProt P18627 23-525); assay: FACS on 293F cells stably expressing human LAG3
T4 construct: whole, on cells; also called CHOK1-human LAG3
T4 sequence (looked up): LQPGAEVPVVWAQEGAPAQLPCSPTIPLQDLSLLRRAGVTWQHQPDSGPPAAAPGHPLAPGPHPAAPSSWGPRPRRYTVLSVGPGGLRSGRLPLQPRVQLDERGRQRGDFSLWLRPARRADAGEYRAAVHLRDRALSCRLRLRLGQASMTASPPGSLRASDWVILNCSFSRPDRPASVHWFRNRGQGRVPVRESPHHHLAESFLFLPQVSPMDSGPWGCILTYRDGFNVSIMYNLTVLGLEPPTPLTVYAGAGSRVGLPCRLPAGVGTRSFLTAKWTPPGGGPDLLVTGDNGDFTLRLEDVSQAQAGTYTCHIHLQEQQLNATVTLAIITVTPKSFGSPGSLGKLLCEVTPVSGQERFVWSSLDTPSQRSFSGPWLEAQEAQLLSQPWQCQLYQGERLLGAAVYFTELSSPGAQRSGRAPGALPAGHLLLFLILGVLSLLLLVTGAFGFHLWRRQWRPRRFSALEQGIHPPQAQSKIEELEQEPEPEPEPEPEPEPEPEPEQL
Method: (§4) Briefly the antibodies were incubated with 2×10⁵ target cells at 4° C. for 1 hour. After washing, fluorescence labeled anti-mouse IgG 2nd antibody (Life Technologies) was added and incubated at 4° C. for 1 hour. Geometric median fluorescence intensity (MFI) was detected and EC₅₀ was calculated using GraphPad Prism9.0.
(§5) MFI was detected and EC₅₀ was calculated using GraphPad Prism9.0.

[9] = target: T4, human LAG3, full length, stably …; assay: FACS on CHOK1 cells stably expressing human LAG3
Method: as §5

[10] = target: T4, human LAG3, full length, stably …; assay: FACS on 293F cells stably expressing human LAG3; remark: listed apart in the source
Method: as §4, §5

[11] = target: T5, human LAG3 ECD recombinant protein (plate coated, tag not stated) (human, UniProt P18627 23-450); assay: competitive ELISA format I: His-FGL1 binding to coated LAG3 ECD
T5 construct: extracellular domain
T5 sequence (looked up): T1 sequence (looked up)
Method: as §3

[12] = target: T3, hFc tagged human LAG3 ECD recombinant …; assay: competitive ELISA format II: biotin hFc-LAG3 ECD binding to coated His-FGL1; remark: listed apart in the source
Method: as §3

[13] = target: T2, mFc tagged human LAG3 ECD recombinant …; assay: competitive FACS: mFc-LAG3 ECD binding to Raji cells (MHC II); remark: listed apart in the source
Method: as §2

Kd [1]: 4.42 nM
koff [1]: 0.0197 s⁻¹
kon [1]: 4.47e+06 M⁻¹ s⁻¹
%Blocking at 4 nM [2]: 26%
%Blocking at 8 nM [2]: 96.7%
%Blocking at 2 nM [3]: 18.9%
%Blocking at 4 nM [3]: 37.5%
%Blocking at 8 nM [3]: 98.8%
B1: hu029.55 (antibody, V domains shown)
VH: QVQLVESGGGLVKPGGSLRLSCAASGFTFSSYAMSWIRQAPGKGLEWVSYVTSGGDYIYYADTVKGRFTISRDDAKNSLYLQMNSLRAEDTAVYYCTRVAYDYEWYFDVWGQGTLVTVSS
VL: DIQMTQSPSSVSASVGDRVTITCKASQDVTTAVAWYQQKPGKAPKLLIYSASYRYTGVPSRFSGSGSGTDFTLTISSLQPEDFATYYCQQHDSSPWTFGQGTKLEIK
notes: humanized from 029c

IC50 [4]: 5.8 nM
TOP blocking (%) [4]: 99.3%
IC50 [5]: 1.2 nM
TOP blocking (%) [5]: 83.9%
Kd [6]: 0.0205 nM
koff [6]: 9.1e-05 s⁻¹
kon [6]: 4.43e+06 M⁻¹ s⁻¹
Kd [7]: 0.0782 nM
koff [7]: 2.37e-05 s⁻¹
kon [7]: 303000 M⁻¹ s⁻¹
EC50 [8]: 0.17 nM
TOP MFI [8]: 3140
B2: hu023.11 (antibody, human IgG4, V domains shown)
VH: QVQLVQSGPELKKPGASVKVSCKASGYTFTESPMNWVRQAPGQGFEWMGIIYTDTGEPTYAEEFKGRFVFSLDTSVSTAYLQISSLKAEDTAVYFCVSDYGSILYWYFDVWGQGTLVTVSS
VL: B1 VL with V11L, T30S, A43S, L73F, D92Y, S93N, S94A, W96P
notes: humanized from 023c

IC50 [4]: 5.9 nM
TOP blocking (%) [4]: 99.2%
IC50 [5]: 1.7 nM
TOP blocking (%) [5]: 82.2%
Kd [6]: 0.242 nM
koff [6]: 0.000402 s⁻¹
kon [6]: 1.66e+06 M⁻¹ s⁻¹
Kd [7]: 0.537 nM
koff [7]: 0.000164 s⁻¹
kon [7]: 305000 M⁻¹ s⁻¹
EC50 [8]: 0.4 nM
TOP MFI [8]: 3180
B3: hu023.04 (antibody, human IgG4, V domains shown)
VH: QVQLVQSGAEVKKPGASVKVSCKASGYTFTESPMNWVRQAPGQGFEWMGIIYTDTGEPTYAEEFKGRVTMTRDTSTSTVYMELSSLRSEDTAVYFCASDYGSILYWYFDVWGQGTLVTVSS
VL: B1 VL with V11L, T30S, D92Y, S93N, S94A, W96P
notes: humanized from 023c

Kd [1]: 4.08 nM
koff [1]: 0.0207 s⁻¹
kon [1]: 5.06e+06 M⁻¹ s⁻¹
%Blocking at 4 nM [2]: 62.8%
%Blocking at 8 nM [2]: 99.4%
B4: hu029.55.S93Q (antibody, V domains shown)
VH: B1 VH
VL: B1 VL with S93Q

Kd [1]: 6.95 nM
koff [1]: 0.00314 s⁻¹
kon [1]: 451000 M⁻¹ s⁻¹
EC50 [9]: 2.3 nM
TOP MFI [9]: 598
%Blocking at 2 nM [3]: 9.9%
%Blocking at 4 nM [3]: 30.4%
%Blocking at 8 nM [3]: 70.2%
B5: hu021.269 (antibody, V domains shown)
VH: QVQLQESGPGLVKPSQTLSLTCTVSGYSITSGYYWNWIRQHPGNKLEWIGDISYDGGNNYNPSLKNRVTISRDTSKNQFSLKLSSVTAADTAVYYCARDITLTGAMDYWGQGTTVTVSS
VL: EIVLTQSPATLSLSPGERATLSCRASESVDNYGISFMHWYQQKPGQAPRLLIYRASNRESGIPARFSGSGSRTDFTLTISSLEPEDFAVYYCQQSNKDPYTFGQGTKLEIK
notes: humanized from 021c

EC50 [9]: 1.8 nM
TOP MFI [9]: 586
%Blocking at 2 nM [3]: 4.6%
%Blocking at 4 nM [3]: 23.9%
%Blocking at 8 nM [3]: 71.5%
B6: hu021.212 (antibody, V domains shown)
VH: B5 VH with T30S, D55E
VL: B5 VL with R58L, S60T
notes: humanized from 021c

Kd [1]: 3.57 nM
koff [1]: 0.00313 s⁻¹
kon [1]: 877000 M⁻¹ s⁻¹
EC50 [9]: 0.4 nM
TOP MFI [9]: 669
%Blocking at 2 nM [3]: 20%
%Blocking at 4 nM [3]: 40.3%
%Blocking at 8 nM [3]: 98.5%
B7: hu021.279 (antibody, V domains shown)
VH: B5 VH with V2I, S15G, N36T, G56A, V68I, A89E, V93T
VL: B5 VL with R58L, R72G
notes: humanized from 021c; also called hu21.279

EC50 [10]: 2 nM
TOP MFI [10]: 302
Blocking ratio at 66.7 nM (%) [11]: 26.7%
IC50 [12]: 6.13 nM
TOP blocking (%) [12]: 78.3%
IC50 [13]: 4.5 nM
TOP blocking (%) [13]: 91.2%
B8: 027c (antibody, human IgG4, V domains shown)
VH: EVKILQSGGGLVQPGGSLKLSCAASGIDFSRYWMSWVRRTPGKGLEWIGEINPDSSTINYAPSLKDKFIISRDNAKNTLYLQMSKVRSEDTALYYCARLGIIPTYHYGSSGYYYAMDYWGQGTSVTVSS
VL: DVLMTQTPLSLPVSLGDRASISCRSSQTIVHGNGHTSLEWYLQKPGQSPQLLIYKVSNRFSGVPDRFSASGSGTDFTLTISRVEAEDLGVYYCFQVSHVPYTFGGGTKLEIK
notes: human IgG4 S228P / kappa chimeric antibody; also called chimeric antibody 027; not shown: human kappa light chain constant region (pcDNA3.4-hIgGk vector)

EC50 [10]: 1.3 nM
TOP MFI [10]: 249
Blocking ratio at 66.7 nM (%) [11]: 14%
IC50 [12]: 35.9 nM
TOP blocking (%) [12]: 12.6%
IC50 [13]: 3.6 nM
TOP blocking (%) [13]: 90.4%
B9: 047c (antibody, human IgG4, V domains shown)
VH: QVQLQQSGAELARPGASVKLSCKASGYSFTSYGVNWVKQRTGQGLEWIGEIYPRSGNTYYNERFGDKATLTADKSSSTAYMEIRSLTSEDSAVYFCARGGTYDGYYYAMDYWGQGTSVTVSS
VL: DIVLTQSPASLAVSLGQRATISCRASESVDNFGSSFMHWYQQKPGQAPKLLIYRASNLESGIPARFSGSGSRTDFTLTINPVETDDVATYYCQQVNKDPRTFGGGTKLEIK
notes: human IgG4 S228P / kappa chimeric antibody; also called chimeric antibody 047; not shown: human kappa light chain constant region (pcDNA3.4-hIgGk vector)

Source: patent US20250313625A1 (ELPISCIENCE SUZHOU BIOPHARMA, published 2025)
